T1: Recombinant soluble extracellular domain of mouse MerTK (mouse, UniProt Q60805 19-497)
T1 construct: SPR analyte; also called mMerTK
T1 sequence: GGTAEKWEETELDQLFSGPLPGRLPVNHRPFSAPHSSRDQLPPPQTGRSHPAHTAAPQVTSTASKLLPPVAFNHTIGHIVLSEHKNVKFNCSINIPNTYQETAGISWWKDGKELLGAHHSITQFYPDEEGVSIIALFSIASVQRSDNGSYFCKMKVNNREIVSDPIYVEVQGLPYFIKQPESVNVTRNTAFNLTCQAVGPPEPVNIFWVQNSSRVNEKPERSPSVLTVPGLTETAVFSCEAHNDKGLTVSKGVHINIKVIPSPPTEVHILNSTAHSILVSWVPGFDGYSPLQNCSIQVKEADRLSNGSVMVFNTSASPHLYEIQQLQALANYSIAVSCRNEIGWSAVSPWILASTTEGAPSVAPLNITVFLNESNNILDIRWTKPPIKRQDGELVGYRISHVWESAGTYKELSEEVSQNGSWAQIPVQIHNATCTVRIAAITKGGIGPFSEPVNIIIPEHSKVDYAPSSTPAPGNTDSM

T2: Recombinant soluble extracellular domain of cynomolgus monkey MerTK (cynomolgus monkey, UniProt Q12866 21-505 (human entry))
T2 construct: SPR analyte; also called cMerTK; Cynomolgus MerTK
T2 chain: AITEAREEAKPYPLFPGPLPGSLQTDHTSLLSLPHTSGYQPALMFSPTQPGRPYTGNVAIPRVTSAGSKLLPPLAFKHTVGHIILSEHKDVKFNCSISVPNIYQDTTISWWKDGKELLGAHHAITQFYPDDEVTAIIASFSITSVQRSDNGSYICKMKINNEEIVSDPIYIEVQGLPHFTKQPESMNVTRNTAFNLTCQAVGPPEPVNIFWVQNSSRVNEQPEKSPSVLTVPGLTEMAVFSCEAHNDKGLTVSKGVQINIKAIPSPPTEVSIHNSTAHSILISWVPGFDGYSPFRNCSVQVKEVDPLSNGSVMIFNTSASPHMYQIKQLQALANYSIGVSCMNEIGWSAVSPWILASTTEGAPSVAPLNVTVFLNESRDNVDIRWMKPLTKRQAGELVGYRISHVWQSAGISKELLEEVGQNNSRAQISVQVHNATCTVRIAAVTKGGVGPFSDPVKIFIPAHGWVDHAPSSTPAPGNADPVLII

T3: Recombinant soluble extracellular domain of human MerTK (human, UniProt Q12866 21-505)
T3 construct: SPR analyte; also called hMerTK
T3 sequence: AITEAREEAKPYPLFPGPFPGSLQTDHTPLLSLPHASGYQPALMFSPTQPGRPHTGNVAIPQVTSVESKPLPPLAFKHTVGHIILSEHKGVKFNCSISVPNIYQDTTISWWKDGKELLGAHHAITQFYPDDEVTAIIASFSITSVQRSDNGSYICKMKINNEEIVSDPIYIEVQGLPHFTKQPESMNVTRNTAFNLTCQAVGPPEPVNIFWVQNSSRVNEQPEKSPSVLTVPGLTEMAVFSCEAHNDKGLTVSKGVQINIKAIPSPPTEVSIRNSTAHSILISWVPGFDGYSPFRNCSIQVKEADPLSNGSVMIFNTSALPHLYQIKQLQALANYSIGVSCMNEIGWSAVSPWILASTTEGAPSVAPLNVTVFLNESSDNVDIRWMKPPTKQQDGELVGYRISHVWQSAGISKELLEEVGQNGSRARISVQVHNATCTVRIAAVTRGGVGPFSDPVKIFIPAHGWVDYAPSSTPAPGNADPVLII

T4: Human MerTK on hMerTK-expressing cells (human, UniProt Q12866 21-999)
T4 sequence: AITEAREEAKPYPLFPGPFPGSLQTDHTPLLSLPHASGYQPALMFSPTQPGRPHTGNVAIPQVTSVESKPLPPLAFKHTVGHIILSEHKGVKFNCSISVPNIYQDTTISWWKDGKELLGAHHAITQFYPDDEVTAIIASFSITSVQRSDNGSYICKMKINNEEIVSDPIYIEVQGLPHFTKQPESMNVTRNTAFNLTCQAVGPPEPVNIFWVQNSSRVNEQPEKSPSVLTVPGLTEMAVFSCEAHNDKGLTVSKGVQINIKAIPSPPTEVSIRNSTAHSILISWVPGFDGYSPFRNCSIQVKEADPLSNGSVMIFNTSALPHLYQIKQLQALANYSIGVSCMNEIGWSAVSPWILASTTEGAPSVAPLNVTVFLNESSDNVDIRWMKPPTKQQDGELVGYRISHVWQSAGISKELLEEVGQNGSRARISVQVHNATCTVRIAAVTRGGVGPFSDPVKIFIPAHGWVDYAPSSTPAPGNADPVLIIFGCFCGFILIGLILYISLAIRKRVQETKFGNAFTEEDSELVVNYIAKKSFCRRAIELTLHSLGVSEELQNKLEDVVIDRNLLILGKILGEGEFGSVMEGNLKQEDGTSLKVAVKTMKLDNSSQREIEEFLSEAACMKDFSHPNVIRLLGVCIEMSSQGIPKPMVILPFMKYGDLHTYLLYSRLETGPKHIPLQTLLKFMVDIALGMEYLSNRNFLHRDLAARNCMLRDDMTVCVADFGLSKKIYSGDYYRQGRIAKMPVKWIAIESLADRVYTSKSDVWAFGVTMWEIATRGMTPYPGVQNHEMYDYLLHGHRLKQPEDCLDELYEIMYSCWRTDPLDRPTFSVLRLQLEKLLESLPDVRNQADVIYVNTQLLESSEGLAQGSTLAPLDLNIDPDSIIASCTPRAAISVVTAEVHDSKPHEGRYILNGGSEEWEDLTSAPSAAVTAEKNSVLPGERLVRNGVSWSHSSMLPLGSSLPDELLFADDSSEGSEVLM

T5: Mouse MerTK on mMerTK-expressing cells (mouse, UniProt Q60805 19-994)
T5 sequence: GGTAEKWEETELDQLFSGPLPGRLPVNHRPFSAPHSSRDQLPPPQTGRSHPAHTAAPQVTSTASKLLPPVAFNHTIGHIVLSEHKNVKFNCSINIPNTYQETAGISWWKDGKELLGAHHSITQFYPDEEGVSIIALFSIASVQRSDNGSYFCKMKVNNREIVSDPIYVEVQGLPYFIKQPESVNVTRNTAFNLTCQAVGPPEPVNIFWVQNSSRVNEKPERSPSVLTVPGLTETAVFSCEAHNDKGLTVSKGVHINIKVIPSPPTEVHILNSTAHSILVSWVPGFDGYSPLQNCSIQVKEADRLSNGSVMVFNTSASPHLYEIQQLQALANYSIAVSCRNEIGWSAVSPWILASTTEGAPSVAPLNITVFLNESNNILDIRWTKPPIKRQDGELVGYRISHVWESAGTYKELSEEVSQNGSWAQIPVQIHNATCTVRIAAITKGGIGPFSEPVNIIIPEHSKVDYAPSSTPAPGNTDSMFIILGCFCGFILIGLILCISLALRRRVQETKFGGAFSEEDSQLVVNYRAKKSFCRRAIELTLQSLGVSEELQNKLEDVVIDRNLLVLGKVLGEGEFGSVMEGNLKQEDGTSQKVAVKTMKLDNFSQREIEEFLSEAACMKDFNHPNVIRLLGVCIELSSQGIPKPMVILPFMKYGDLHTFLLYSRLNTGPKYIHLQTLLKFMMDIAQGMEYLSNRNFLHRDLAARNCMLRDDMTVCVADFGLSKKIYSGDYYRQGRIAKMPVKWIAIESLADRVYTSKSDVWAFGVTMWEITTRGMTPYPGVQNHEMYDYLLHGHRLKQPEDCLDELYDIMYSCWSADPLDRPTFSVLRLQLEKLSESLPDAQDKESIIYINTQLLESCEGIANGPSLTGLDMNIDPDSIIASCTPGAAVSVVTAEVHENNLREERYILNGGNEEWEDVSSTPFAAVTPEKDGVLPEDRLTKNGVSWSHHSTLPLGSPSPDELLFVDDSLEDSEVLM

B1: Humanized mAb 4M60 (antibody, human IgG1, kappa, V domains shown)
VH: QVQLVQSGSELKKPGASVKVSCKASGNTFTTYGMSWVRQAPGQGLEWMGWINNYSGVSTYADDFKGRFVFSLDTSVSTAYLQISSLKAEDTAVYYCARDYYGSGGWVFDYWGQGTTVTVSS
VL: DVVMTQSPLSLPVTLGQPASISCKSSQSLLDSEGKTYLNWLQQRPGQSPRRLMYLVSKLDSGVPDRFSGSGSGTDFTLKISRVEAEDVGVYYCWQGTHFPRTFGGGTKVEIKR
notes: Humanized variant of moMAb 4E9, Bin 2
B2: HuMAb 10K11 (antibody, human IgG1, kappa, V domains shown)
VH: QLQLQESGPGLVKPSETLSLTCAVSGYSISSDYSWGWIRQPPGKGLEWIGSIYHSGNTYFNPSLKSRVTISVDTSKNQFSLKLSSVTAADTAVYYCARDKSYYFGPGSMDVWGQGTTVTVSS
VL: AIQLTQSPSSLSASVGDRVTITCRASQGISSALAWYQQKPGKAPKLLIYDASSLESGVPSRFSGSGSGTDFTLTISSLQPEDFATYYCQQFKSYLTFGQGTRLEIKR
notes: Human anti-hMerTK mAb, Bin 1
B3: MoMAb 2D9 (antibody, V domains shown)
VH: QVQLKESGPGLVAPSQSLSITCTVSGISLSSFAISWVRQPPGKGLEWLGVIWTGGGTDYNSALKSRLTISKDTSKNQVFLKMNSLQTDDTARYYCASHWYLDVWGTGTTVTVSS
VL: QAVVTQESALTTSPGETVTLTCRSSTGAVSTSNYANWVQEKPDHLFTGLIGGANSRAPGIPARFSGSLIGDKAALTITGAQTEDEAIYFCALWFSNHWVFGGGTKLTVL
notes: Mouse mAb; Bin 2
B4: MoMAb 4E9 (antibody, V domains shown)
VH: QIQLVQSGPELKKPGETVKISCKASGNTFTTYGMSWVKQAPGKNLKWMGWINNYSGVSTYADDFKGRFAFSLETSATTAYLQINNLTNEDSATYFCARDYYGSGGWVFDYWGQGTTLTVSS
VL: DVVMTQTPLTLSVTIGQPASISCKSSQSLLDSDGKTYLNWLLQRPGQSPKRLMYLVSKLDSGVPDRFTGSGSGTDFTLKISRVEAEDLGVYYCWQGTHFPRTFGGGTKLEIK
notes: Mouse mAb; Bin 2
B5: Humanized MAb 2L105 (antibody, human IgG1, lambda, V domains shown)
VH: QVTLKESGPVLVKPTETLTLTCTVSGISLSSFAISWIRQPPGKALEWLAVIWTGGGTDYNSALKSRLTISKDTSKSQVVLTMTNMDPVDTATYYCASHWYLDVWGQGTTVTVSS
VL: QTVVTQEPSFSVSPGGTVTLTCRSSTGAVSTSNYANWVQQTPGQAPRGLIGGANSRAPGIPDRFSGSILGNKAALTITGAQADDESDYYCALWFSNHWVFGGGTKLTVLG
notes: Humanized variant of moMAb 2D9, Bin 2

Key:
[1] = molecular target: T1, Recombinant soluble extracellular …; assay: SPR, mAb captured, soluble MerTK ECD as analyte, 37 C
Description: (§1) MerTK Abs were captured on the chip. Recombinant soluble forms of the extracellular domains of human, cynomolgus monkey, and mouse MerTK polypeptide were injected as analytes at multiple concentrations each. The resulting sensorgrams were double-referenced and fitted to a 1:1 Langmuir binding model with mass transport.

[2] = molecular target: T2, Recombinant soluble extracellular …; assay: as above
Description: as §1

[3] = molecular target: T3, Recombinant soluble extracellular …; assay: as above
Description: as §1

[4] = molecular target: T4, Human MerTK on hMerTK-expressing cells; assay: cell-based or functional assay
[5] = molecular target: T5, Mouse MerTK on mMerTK-expressing cells; assay: cell-based or functional assay
[6] = molecular target: T1, Recombinant soluble extracellular …; assay: SPR, soluble MerTK ECD; format for mouse mAbs not detailed
[7] = molecular target: T2, Recombinant soluble extracellular …; assay: as above
[8] = molecular target: T3, Recombinant soluble extracellular …; assay: as above

Row | Binder | Kd [1] [nM] | koff [1] [s⁻¹] | kon [1] [M⁻¹ s⁻¹] | t1/2 [1] [min] | Kd [2] [nM] | koff [2] [s⁻¹] | kon [2] [M⁻¹ s⁻¹] | t1/2 [2] [min] | Kd [3] [nM] | koff [3] [s⁻¹] | kon [3] [M⁻¹ s⁻¹] | t1/2 [3] [min] | Signaling Assay, hMerTK with Gas6, pSTAT1 IC50 (nM) [4] [nM] | Inhibition of Efferocytosis IC50 [4] [nM] | Signaling Assay, hMerTK without Gas6, pSTAT1 IC50 (nM) [4] [nM] | Signaling Assay, mMerTK with Gas6, pSTAT1 IC50 (nM) [5] [nM] | Kd [6] [nM] | koff [6] [s⁻¹] | kon [6] [M⁻¹ s⁻¹] | t1/2 [6] [min] | also measured
1 | B1 | 47.1 | 0.00249 | 52900 | 4.6 | 42.5 | 0.00137 | 32200 | 8.4 | 50.8 | 0.00134 | 26400 | 8.6 | 8.88 | – | – | – | – | – | – | – | –
2 | B2 | – | – | – | – | 22.5 | 0.00235 | 108000 | 4.9 | 9 | 0.00117 | 132000 | 9.9 | 1.13 | 0.169 | > 100 | – | – | – | – | – | –
3 | B3 | – | – | – | – | – | – | – | – | – | – | – | – | 1.44 | 0.528 | > 100 | 2.07 | 3.2 | 0.000403 | 126000 | 28.7 | Kd [7]: 12 nM; koff [7]: 0.00064 s⁻¹; kon [7]: 53300 M⁻¹ s⁻¹; t1/2 [7]: 18 min; koff [8]: 0.00064 s⁻¹; t1/2 [8]: 18.2 min
4 | B4 | – | – | – | – | – | – | – | – | – | – | – | – | 1.52 | 0.632 | > 100 | 1.86 | 9.7 | 0.00133 | 137000 | 8.7 | Kd [7]: 40 nM; koff [7]: 0.00112 s⁻¹; kon [7]: 28400 M⁻¹ s⁻¹; t1/2 [7]: 10.3 min; koff [8]: 0.00114 s⁻¹; t1/2 [8]: 10.1 min
5 | B5 | 13.7 | 0.00123 | 89500 | 9.4 | 27 | 0.00151 | 55900 | 7.7 | 24.8 | 0.00146 | 58900 | 7.9 | 1.37 | – | – | – | – | – | – | – | –

From patent US20210395392A1 (Bristol-Myers Squibb, published 2021)
